Here are results for 1 protein from article PMC6018217, “3-Hydroxyphthalic Anhydride- Modified Rabbit Anti-PAP IgG as a Potential Bifunctional HIV-1 Entry Inhibitor” (Frontiers in Microbiology, 2018).

This data set concerns the molecule itself. Nature of the data set: amyloid fibril formation (ThT fluorescence, Congo red, TEM, CD); PAP248-286 alone at 3 mg/ml in PBS, agitated at 1,400 rpm, 37°C, 0-48 h; fibrils read by ThT fluorescence, Congo red staining, negative-stain TEM and CD.

B1: Peptide PAP248-286 (amino acid residues 248-286 of prostatic acidic phosphatase) (peptide, UniProt P15309 248-286, looked up)
peptide: GIHKQKEKSRLQGGVLVNEILNHMKRATQIPSYKKLIMY
notes: Forms SEVI amyloid fibrils when agitated at 3 mg/ml in PBS, 37°C; also called SEVI; SEVI fibrils; source: synthetic peptide (Fmoc solid phase, GL Biochem, HPLC purified)
For B1, the binding result is “binds”.
